The target of the assay is T1, GtgA(20–228)^E183Q (Salmonella Typhimurium strain ATCC …, UniProt A0A0F6AZI6 20-228, E183Q).
T1 construct: residues left by TEV cleavage of the His6–GST tag, before the first residue of GtgA; Cloned in pETM30 (TEV-cleavable N-terminal His6 and GST); source: E. coli BL21 PC2, purified (GSH–Sepharose, TEV cleavage, Superdex 75 SEC); not shown: His6, N-terminal, cleaved; GST, N-terminal, cleaved
T1 sequence: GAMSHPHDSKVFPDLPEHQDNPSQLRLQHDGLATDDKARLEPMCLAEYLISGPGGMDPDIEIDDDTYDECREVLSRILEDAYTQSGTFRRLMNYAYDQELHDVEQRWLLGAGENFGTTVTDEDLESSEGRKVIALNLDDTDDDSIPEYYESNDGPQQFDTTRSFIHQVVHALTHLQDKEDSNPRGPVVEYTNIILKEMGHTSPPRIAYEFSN
Briefly: crystal structure; GtgA(20–228)^E183Q–p65(20–188) complex, 175 μM of each protein mixed immediately prior to crystallization; sitting drop, 20 °C, 0.1 M Tris pH 8.3, 0.5 M LiCl, 32.5% (w/v) PEG 6000; Zn2+-free; single heterodimer in the asymmetric unit. As to conditions: both partners purified.

B1: p65(20–188) (domain or fragment, murine)
chain: AYVEIIEQPKQRGMRFRYKCEGRSAGSIPGERSTDTTKTHPTIKINGYTGPGTVRISLVTKDPPHRPHPHELVGKDCRDGYYEADLCPDRSIHSFQNLGIQCVKKRDLEQAISQRIQTNNNPFHVPIEEQRGDYDLNAVRLCFQVTVRDPAGRPLLLTPVLSHPIFDNRA
notes: single alanine left by ULP1 cleavage of the His6–SUMO tag, before the first residue of p65; NF-κB subunit p65 (RelA), murine, amplified from RAW264.7 cDNA, N-terminal domain residues 20–188; Cloned in pE-SUMO (LifeSensors); also called p65 NTD; p65 N-terminal domain; source: E. coli BL21 PC2, purified (Ni-NTA, ULP1 cleavage, Superdex 75 SEC); not shown: His6, N-terminal, cleaved; SUMO, …
As for B1, the binding result is reported as “binds”.

Values taken from paper PMC6166728, “Structure–function analyses of the bacterial zinc metalloprotease effector protein GtgA uncover key residues required for deactivating NF-κB” (The Journal of Biological Chemistry, 2018).
